Measurements as given in patent US20170285043A1 (WHITEHEAD INSTITUTE FOR BIOMEDICAL RESEARCH, published 2017).

B1: FLAG-Sestrin2 (other)
chain: MIVADSECRAELKDYLRFAPGGVGDSGPGEEQRESRARRGPRGPSAFIPVEEVLREGAESLEQHLGLEALMSSGRVDNLAVVMGLHPDYFTSFWRLHYLLLHTDGPLASSWRHYIAIMAAARHQCSYLVGSHMAEFLQTGGDPEWLLGLHRAPEKLRKLSEINKLLAHRPWLITKEHIQALLKTGEHTWSLAELIQALVLLTHCHSLSSFVFGCGILPEGDADGSPAPQAPTPPSEQSSPPSRDPLNNSGGFESARDVEALMERMQQLQESLLRDEGTSQEEMESRFELEKSESLLVTPSADILEPSPHPDMLCFVEDPTFGYEDFTRRGAQAPPTFRAQDYTWEDHGYSLIQRLYPEGGQLLDEKFQAAYSLTYNTIAMHSGVDTSVLRRAIWNYIHCVFGIRYDDYDYGEVNQLLERNLKVYIKTVACYPEKTTRRMYNLFWRHFRHSEKVHVNLLLLEARMQAALLYALRAITRYMT
notes: Transiently or stably expressed in HEK-293T cells; also called FLAG-tagged wild-type Sestrin2; wild-type Sestrin2; not shown: FLAG tag
B2: endogenous Sestrin2 (other)
chain: B1 chain
notes: Endogenous protein of human HEK-293T cells
B3: metap2 control protein (enzyme, UniProt P50579 1-478, looked up, not shown: small tags and cut ends)
chain: MAGVEEVAASGSHLNGDLDPDDREEGAASTAEEAAKKKRRKKKKSKGPSAAGEQEPDKESGASVDEVARQLERSALEDKERDEDDEDGDGDGDGATGKKKKKKKKKRGPKVQTDPPSVPICDLYPNGVFPKGQECEYPPTQDGRTAAWRTTSEEKKALDQASEEIWNDFREAAEAHRQVRKYVMSWIKPGMTMIEICEKLEDCSRKLIKENGLNAGLAFPTGCSLNNCAAHYTPNAGDTTVLQYDDICKIDFGTHISGRIIDCAFTVTFNPKYDTLLKAVKDATNTGIKCAGIDVRLCDVGEAIQEVMESYEVEIDGKTYQVKPIRNLNGHSIGQYRIHAGKTVPIVKGGEATRMEEGEVYAIETFGSTGKGVVHDDMECSHYMKNFDVGHVPIRLPRTKHLLNVINENFGTLAFCRRWLDRLGESKYLMALKNLCDLGIVDPYPPLCDIKGSYTAQFEHTILLRPTCKEVVSRGDDY
notes: Control protein; also called FLAG-Metap2; FLAG-metap2
B4: FLAG-Sestrin3 (other)
chain: MNRGGGSPSAAANYLLCTNCRKVLRKDKRIRVSQPLTRGPSAFIPEKEVVQANTVDERTNFLVEEYSTSGRLDNITQVMSLHTQYLESFLRSQFYMLRMDGPLPLPYRHYIAIMAAARHQCSYLINMHVDEFLKTGGIAEWLNGLEYVPQRLKNLNEINKLLAHRPWLITKEHIQKLVKTGENNWSLPELVHAVVLLAHYHALASFVFGSGINPERDPEISNGFRLISVNNFCVCDLANDNNIENASLSGSNFGIVDSLSELEALMERMKRLQEEREDEEASQEEMSTRFEKEKKESLFVVSGDTFHSFPHSDFEDDMIITSDVSRYIEDPGFGYEDFARRGEEHLPTFRAQDYTWENHGFSLVNRLYSDIGHLLDEKFRMVYNLTYNTMATHEDVDTTMLRRALFNYVHCMFGIRYDDYDYGEVNQLLERSLKVYIKTVTCYPERTTKRMYDSYWRQFKHSEKVHVNLLLMEARMQAELLYALRAITRHLT
notes: also called recombinant, FLAG-tagged Sestrin3; not shown: FLAG tag
B5: FLAG-Sestrin1 (other)
chain: MAEGENEVRWDGLCSRDSTTRETALENIRQTILRKTEYLRSVKETPHRPSDGLSNTESSDGLNKLLAHLLMLSKRCPFKDVREKSEFILKSIQELGIRIPRPLGQGPSRFIPEKEILQVGSEDAQMHALFADSFAALGRLDNITLVMVFHPQYLESFLKTQHYLLQMDGPLPLHYRHYIGIMAAARHQCSYLVNLHVNDFLHVGGDPKWLNGLENAPQKLQNLGELNKVLAHRPWLITKEHIEGLLKAEEHSWSLAELVHAVVLLTHYHSLASFTFGCGISPEIHCDGGHTFRPPSVSNYCICDITNGNHSVDEMPVNSAENVSVSDSFFEVEALMEKMRQLQECRDEEEASQEEMASRFEIEKRESMFVFSSDDEEVTPARAVSRHFEDTSYGYKDFSRHGMHVPTFRVQDYCWEDHGYSLVNRLYPDVGQLIDEKFHIAYNLTYNTMAMHKDVDTSMLRRAIWNYIHCMFGIRYDDYDYGEINQLLDRSFKVYIKTVVCTPEKVTKRMYDSFWRQFKHSEKVHVNLLLIEARMQAELLYALRAITRYMT
notes: also called recombinant, FLAG-tagged Sestrin1; not shown: FLAG tag

Key:
[1] = molecular target: T1, GATOR1, recombinant (HA-Depdc5, HA-Npr13, HA-Npr12) (UniProt O75140 1-1603; Q8WTW4 1-380; Q12980 1-569, limits assumed); assay: anti-FLAG co-immunoprecipitation, transient co-expression in HEK-293T, immunoblot (FIG. 1B)
T1 construct: also called GATOR1 multi-protein complex; not shown: HA tag
Description: (§1) Two million HEK-293T cells were plated in 10 cm culture dishes and grown. Twenty-four hours later, cells were transfected via the polyethylenimine method (Boussif et al., 1995) with one or more of the pRK5-based cDNA expression plasmids in the following amounts: 300 ng FLAG-Metap2, 100 ng FLAG-WDR24, 50 ng FLAG-Sestrin1, 25 ng FLAG-Sestrin2, 200 ng FLAG-Sestrin3, 2 ng of FLAG-S6K1, or 200 ng each of HA-Mios, HA-WDR59, HA-WDR24, HA-Sec13, HA-Seh1L, HA-Depdc5, HA-Npr13, or HA-Npr12. The total amount of plasmid DNA in each transfection was normalized to 5 μg with empty pRK5.
(§2) The beads were washed 3 times with lysis buffer containing 500 mM NaCl. In the case of transient cotransfection assays to explore the interaction of the Sestrins with GATOR2, beads were incubated in the final salt wash for 30 minutes to reduce non-specific binding.

[2] = molecular target: T2, FLAG-DEPDCS, a GATOR1 component (UniProt O75140 1-1603, limits assumed); assay: anti-FLAG co-immunoprecipitation from stably expressing HEK-293T, immunoblot (FIG. 5A)
T2 construct: also called FLAG-DEPDC5; not shown: FLAG tag

[3] = molecular target: B4; assay: anti-FLAG co-immunoprecipitation, transient co-expression in HEK-293T, immunoblot (FIG. 1B)
Description: as §1, §2

[4] = molecular target: B1; assay: as above
Description: as §1, §2

[5] = molecular target: B3; assay: as above
Description: as §1, §2

T1 sequence (O75140 whole entry, chain 1 of 3): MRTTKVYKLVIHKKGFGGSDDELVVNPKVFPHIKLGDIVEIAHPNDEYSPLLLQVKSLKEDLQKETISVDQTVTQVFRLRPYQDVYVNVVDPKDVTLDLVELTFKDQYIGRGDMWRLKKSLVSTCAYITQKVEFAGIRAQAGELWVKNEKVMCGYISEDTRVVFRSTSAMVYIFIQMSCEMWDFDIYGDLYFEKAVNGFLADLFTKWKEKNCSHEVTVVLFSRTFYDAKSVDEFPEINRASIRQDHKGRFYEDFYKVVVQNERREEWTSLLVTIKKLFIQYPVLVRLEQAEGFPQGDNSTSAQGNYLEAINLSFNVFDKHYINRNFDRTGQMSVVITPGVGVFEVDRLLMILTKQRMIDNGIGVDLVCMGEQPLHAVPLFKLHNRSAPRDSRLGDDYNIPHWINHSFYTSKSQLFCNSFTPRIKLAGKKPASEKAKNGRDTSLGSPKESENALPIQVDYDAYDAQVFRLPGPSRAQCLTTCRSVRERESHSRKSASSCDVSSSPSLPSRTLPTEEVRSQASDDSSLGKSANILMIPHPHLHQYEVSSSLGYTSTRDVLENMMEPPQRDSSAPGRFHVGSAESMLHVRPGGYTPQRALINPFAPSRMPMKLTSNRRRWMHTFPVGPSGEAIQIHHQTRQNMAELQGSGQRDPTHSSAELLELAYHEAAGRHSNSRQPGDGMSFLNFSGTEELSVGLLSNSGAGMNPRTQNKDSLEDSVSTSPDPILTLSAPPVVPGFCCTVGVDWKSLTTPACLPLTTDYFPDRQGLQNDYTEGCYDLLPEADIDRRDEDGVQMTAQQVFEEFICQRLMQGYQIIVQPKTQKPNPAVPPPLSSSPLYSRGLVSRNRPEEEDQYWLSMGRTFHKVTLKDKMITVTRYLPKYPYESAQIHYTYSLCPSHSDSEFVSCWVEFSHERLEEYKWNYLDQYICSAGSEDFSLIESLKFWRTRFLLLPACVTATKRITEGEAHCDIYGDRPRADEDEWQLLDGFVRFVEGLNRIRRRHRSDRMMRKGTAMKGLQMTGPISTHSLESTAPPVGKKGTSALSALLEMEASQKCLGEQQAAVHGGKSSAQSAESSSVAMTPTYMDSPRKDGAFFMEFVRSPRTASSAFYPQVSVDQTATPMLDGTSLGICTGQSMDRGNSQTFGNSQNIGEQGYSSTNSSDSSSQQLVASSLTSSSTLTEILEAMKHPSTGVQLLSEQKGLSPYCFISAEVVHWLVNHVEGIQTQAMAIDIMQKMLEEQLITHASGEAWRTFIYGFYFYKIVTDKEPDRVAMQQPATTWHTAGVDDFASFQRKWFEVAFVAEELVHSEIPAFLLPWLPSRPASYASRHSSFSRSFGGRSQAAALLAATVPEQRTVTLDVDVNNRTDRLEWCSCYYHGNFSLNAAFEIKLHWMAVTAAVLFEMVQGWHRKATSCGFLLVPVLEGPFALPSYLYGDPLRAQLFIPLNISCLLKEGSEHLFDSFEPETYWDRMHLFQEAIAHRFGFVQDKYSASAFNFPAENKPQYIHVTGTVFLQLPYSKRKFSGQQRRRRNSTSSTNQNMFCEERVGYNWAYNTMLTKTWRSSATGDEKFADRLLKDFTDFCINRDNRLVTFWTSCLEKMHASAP
T1 sequence (Q8WTW4 whole entry, chain 2 of 3): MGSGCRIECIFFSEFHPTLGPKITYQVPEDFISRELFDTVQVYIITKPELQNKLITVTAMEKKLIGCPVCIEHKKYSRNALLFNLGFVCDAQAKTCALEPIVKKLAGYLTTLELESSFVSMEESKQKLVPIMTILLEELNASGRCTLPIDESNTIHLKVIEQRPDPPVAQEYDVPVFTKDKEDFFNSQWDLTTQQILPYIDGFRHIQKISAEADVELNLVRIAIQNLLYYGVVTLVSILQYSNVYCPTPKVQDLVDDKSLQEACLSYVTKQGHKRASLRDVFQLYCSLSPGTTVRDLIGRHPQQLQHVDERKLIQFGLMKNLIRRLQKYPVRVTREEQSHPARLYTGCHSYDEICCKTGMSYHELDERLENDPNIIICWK
T1 sequence (Q12980 whole entry, chain 3 of 3): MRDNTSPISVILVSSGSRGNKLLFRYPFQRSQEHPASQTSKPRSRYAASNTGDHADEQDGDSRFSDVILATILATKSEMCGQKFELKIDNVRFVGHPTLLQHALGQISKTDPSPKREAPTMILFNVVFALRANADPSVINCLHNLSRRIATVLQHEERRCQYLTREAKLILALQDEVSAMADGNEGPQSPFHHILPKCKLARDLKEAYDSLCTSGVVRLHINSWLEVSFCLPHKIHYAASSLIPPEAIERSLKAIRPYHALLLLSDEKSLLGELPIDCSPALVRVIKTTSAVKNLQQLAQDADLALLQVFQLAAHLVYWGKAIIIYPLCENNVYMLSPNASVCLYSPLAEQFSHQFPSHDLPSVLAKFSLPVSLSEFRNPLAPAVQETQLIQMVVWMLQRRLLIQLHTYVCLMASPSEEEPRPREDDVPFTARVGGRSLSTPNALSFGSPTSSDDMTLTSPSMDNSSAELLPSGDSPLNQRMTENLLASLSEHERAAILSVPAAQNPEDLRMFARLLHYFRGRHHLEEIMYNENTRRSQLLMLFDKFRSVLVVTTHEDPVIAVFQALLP
T2 sequence (O75140 whole entry): as the sequence (O75140 whole entry, chain 1 of 3) above

Binder: B1
binding result [1]: no binding

Binder: B2
binding result [2]: no binding

Binder: B3
binding result [3]: no binding | binding result [4]: no binding

Binder: B4
binding result [1]: no binding

Binder: B5
binding result [1]: no binding | binding result [5]: no binding
